Substrate in data set [1]: CC(=O)CC(=O)SCCNC(=O)CCNC(=O)[C@H](O)C(C)(C)COP(=O)(O)OP(=O)(O)OC[C@H]1O[C@@H](n2cnc3c(N)ncnc32)[C@H](O)[C@@H]1OP(=O)(O)O
Put plainly: purified protein. It is filed as biochemical, Nitrosopumilus maritimus. The settings on record: 0.5 mM NADH, 100 mM Tris-HCl pH 7.8, 30°C, reverse reaction, monomeric enzyme.

Substrate in data set [2]: C[C@H](O)CC(=O)SCCNC(=O)CCNC(=O)[C@H](O)C(C)(C)COP(=O)(O)OP(=O)(O)OC[C@H]1O[C@@H](n2cnc3c(N)ncnc32)[C@H](O)[C@@H]1OP(=O)(O)O
Put plainly: purified protein. The settings on record: 2 mM NAD, 100 mM Tris-HCl pH 7.8, 30°C, forward reaction, monomeric enzyme. It is filed as biochemical, Nitrosopumilus maritimus.

Substrate in data set [3]: NC(=O)C1=CN([C@@H]2O[C@H](COP(=O)(O)OP(=O)(O)OC[C@H]3O[C@@H](n4cnc5c(N)ncnc54)[C@H](O)[C@@H]3O)[C@@H](O)[C@H]2O)C=CC1
Put plainly: purified protein. It is filed as biochemical, Nitrosopumilus maritimus. The settings on record: 0.2 mM acetoacetyl-CoA, 100 mM Tris-HCl pH 7.8, 30°C, reverse reaction, monomeric enzyme.

Substrate in data set [4]: NC(=O)c1ccc[n+]([C@@H]2O[C@H](COP(=O)(O)OP(=O)(O)OC[C@H]3O[C@@H](n4cnc5c(N)ncnc54)[C@H](O)[C@@H]3O)[C@@H](O)[C@H]2O)c1
Put plainly: purified protein. In kind it is biochemical, Nitrosopumilus maritimus. The following applies: 0.2 mM (S)-3-hydroxybutyryl-CoA, 100 mM Tris-HCl pH 7.8, 30°C, forward reaction, monomeric enzyme.

Substrate in data set [5]: NC(=O)c1ccc[n+]([C@@H]2O[C@H](COP(=O)(O)OP(=O)(O)OC[C@H]3O[C@@H](n4cnc5c(N)ncnc54)[C@H](OP(=O)(O)O)[C@@H]3O)[C@@H](O)[C@H]2O)c1
Put plainly: purified protein. It is filed as biochemical, Nitrosopumilus maritimus. The following applies: 0.2 mM (S)-3-hydroxybutyryl-CoA, 100 mM Tris-HCl pH 7.8, 30°C, forward reaction, monomeric enzyme.

Data set [6] deals with the molecule itself. The data set can be described thus: SEC; Superdex 200 Increase (24 ml), 0.75 ml/min, 20 mM Tris-HCl pH 7.8, 150 mM KCl; native mass from a standard curve (apoferritin, alcohol dehydrogenase, BSA, carbonic anhydrase). A general note: In gel filtration, larger molecules generally elute earlier.

B1: (S)-3-hydroxybutyryl-CoA dehydrogenase Nmar_1028 (enzyme, Nitrosopumilus maritimus SCM1, UniProt A9A3J2 1-379, looked up)
chain: MAVKNITILGSGVMGHGIAQVSATAGYNVVLRDIEQGFLDKAMEKIRWSLDKLVSKEKISKEEGDSIFGRITPVVDLKEAVKDAELVIEVVPEIMDLKKKVYAELDEVAAPEVIFASNTSTLPITEIANTTSRPDKFIGIHFFNPPQLMKLVEVIPGEKTSQEITDLTKDYVKSVNKQAVLCRKDVPGFIINRLFIPMVHEACYAKDRTGATLEEIDSAVKFNLGFPMGIFELADFTGMDVIHKATVEMHLRDKKVINPHPTVEKMFDEKKLGQKSGEGYYKYSDDKYERVELSQELAQKFNPIQLVANILNNAAWLVTNGASDIEEIEKAAQLGLGLKKPLFETAKEIGIKNIVDELNKLAEEHGEFYKPDPLLTSMQ
notes: (S)-3-hydroxybutyryl-CoA dehydrogenase Nmar_1028 of Nitrosopumilus maritimus strain SCM1; gene amplified from genomic DNA from the initiation codon to after the stop codon; predicted size 44.8 kDa; No removal of the His10 tag is described; also called HBDH; source: E. coli Rosetta 2 (DE3), purified (Ni-NTA)
As a reminder, the Km is the substrate concentration at which the rate is half of its maximum. Usually Vmax stands for the rate approached at saturating substrate. The term kcat denotes the number of substrate molecules converted per active site and unit of time at saturation. The term kcat/Km denotes the turnover number divided by the Michaelis constant. The stoichiometry N is the number of molecules, sites or subunits per partner or assembly. Consider B1, for which the Km is 26 ± 4 µM in the data set “purified protein [1]”; 19 ± 2 µM in the data set “purified protein [2]”; 16 ± 6 µM in “purified protein [3]”; 100 ± 20 µM in the data set “purified protein [4]”; 2920 ± 630 µM in the data set “purified protein [5]”. Further, the Vmax in “purified protein [1]” was 145 µmol/min/mg; in “purified protein [2]”, 98.6 µmol/min/mg; in “purified protein [3]” it was 113 µmol/min/mg; in the data set “purified protein [4]”, 84.4 µmol/min/mg; in “purified protein [5]”, 10.1 µmol/min/mg. The kcat stood at 108 s⁻¹ in the data set “purified protein [1]” and 74 s⁻¹ in “purified protein [2]”. Besides, the kcat/Km turned out to be 4.04e+06 M⁻¹ s⁻¹ in “purified protein [1]”; 3.88e+06 M⁻¹ s⁻¹ in the data set “purified protein [2]”; 5.27e+06 M⁻¹ s⁻¹ in “purified protein [3]”; 630000 M⁻¹ s⁻¹ in “purified protein [4]”; 3000 M⁻¹ s⁻¹ in “purified protein [5]”. Also, in data set [6], the “stoichiometry N” value was determined as 2.

These data come from PMC8287830, “(S)-3-Hydroxybutyryl-CoA Dehydrogenase From the Autotrophic 3-Hydroxypropionate/4-Hydroxybutyrate Cycle in Nitrosopumilus maritimus” (Frontiers in Microbiology, 2021).
